One experiment addresses delta (DOP) (h) (human) (UniProt P41143). Description: radioligand displacement, reference compound of the assay (Ki Ref). For orientation: Displacement assays read how much labelled ligand stays bound in the presence of the test substance.
In another experiment the target is mu (MOP) (h) (human) (UniProt P35372). The description is as above.

The results in this text go back to US12427210B2, “Compounds comprising a fibroblast activation protein ligand and use thereof” (priority 2019, dated 2025).

In the experiment with delta (DOP) (h) (human), DPDPE (peptide) yielded a Ki of 1.2 nM.
DAMGO (peptide) gave a Ki with mu (MOP) (h) (human) of 0.37 nM. In other words, the sub-nanomolar range.

What is called Ki is a dissociation constant, usually derived from enzyme kinetics or from competition with a known ligand.
